Results on 20 sequences are retold here after the DeepSol protein solubility set.

The nature of the data set: soluble on expression in E. coli; label from the status in PepcDB or PDB records.
“PAGPFTRALWEASGDIIAGINSSDFITMLGDGTLRRPEFDFYIDQDAQYLAQYSRALARLSSIAPDSHAQIEWAQSAAECLVVEAELHRSYMAGKEVSAPSHITMAYTDFLIARTYTEDYVCGVAAVLPCYWLYAEIGLMLAEQNHDEHPYKDWLNTYSGEEFIAGTRAAIARLEKALENAGAEQRVDAARAFLSASVHEREFFDQATRHG”: the “soluble on expression in E. coli” value is “not soluble”.
On to “MKAEKVRLRKQIIEHMNSLSEEQYTTLSEQIAFSLYAQKEWVEAKTIGITLSMENEVNTYPIIEKAWEEGKKVVVPKCNKGTRTMSFRQINNFDQLETVYMNLREPIPGLTEEVNMDEIDLQIVPGVAYTERGERIGYGGGYYDRYLVHYKGKTLSLAYDFQMVKHIPVEPFDKNIEKIITEKGTLLTNKLVLEHHHHHH”, for which the “soluble on expression in E. coli” value is “soluble”.
Regarding “MMLITTSHRPTRRTRSFGHDLERVFPNSLYLTRGKKTIQELLMEAYDRGYERLLILNVWKGNPLKMTFIKVHPEDWGYLGYLYLHGIKLQREMGFKGLNPIREDMPLVVTTAKRVGWDHIAFAQVFAELTTGKFVPRGDKSLTYIADKYDTDVIAVIERHPRGMVINFYRLDVTKDRPVGPLINVKIWIMEDGRRWDYKEALGIKVPRREKGEGQESSSENRDLEHHHHHH”, the “soluble on expression in E. coli” value was “soluble”.
In the case of “MANPFSKAWKYLMALFDSKIEENADPKVQIQQAIEDAQRQHQELSQQAAAVIGNQRQLEMQLNRRLAEIEKLQGNTRQAIQLADKARAEGNIQKATEYENAAEAFAAQLVTAEQGVEDTKQLHDQALQQADAAKKAVERNAMVLQQKVAERTKLLSQLEQAKMQEKVAESIQSMNSISNRDTPNLDQVREKIERRYANALGTAELAQNSVQGRMAEVEQAGIQLAGHSRLEQIRAEMSGGQLGAGNSATQQSIESAQQATPSAADDAVARKMRELRGEA”, the “soluble on expression in E. coli” value is “not soluble”.
In the case of “MAHHHHHHMFSSHKTPAKAQRDGYDDEQHLVAAVSEFKKVEASNQSMVDQLHQRLASPFQITAKPCEAGRAAVLQCYQQLQSSSAVTTSNAASSTSPAPPPGARSDSKSAKVAPAEAWLSIPYQQCYETALAYHQCVEDTLAKHLALVAAFEQCGTQQKIAHQSAMKAQDKPQ”, the “soluble on expression in E. coli” value is given as “soluble”.
Next, “GPGSMNQLVVFLDIDNTLYSGEEYHSLAEQIRDGLVEYVGNWLQLTPQESEAYVVHCFEKYGLTIAGLMHEQKGFDAEAATDFLYSHCDFSHLQENPRLREMLSRLRRNHHLYFFTNASRRHATTVLQALGLSSDEFRMSGFTYEDQWAQTAPVPCNKPMRNAYIAVIKVLKKWLQDAEWVTAECMVMVDDSACNLIEPLALGLNAVWVSHGHPISDVLAEKMNTGRLFCITDIIELEDIIKQITINREN”: “soluble”; “MGSDKIHHHHHHMDIEDLRTFVAVADAGGVSAAARRLGISKSIVSRRLFRIEAELGVQLLARTTRGAALTEAGITFRDHAARASAEIDTARETILPAGELHGRLRIAMPLTFGPTHFAPVLAEMARQHPQLHIHTSYSDRFVDLIAEGFDCAIRGAYLQDSNLIAKRVGPIHGKLVASPAYIKAHGSPEMVEQLVNHQALMQGTEAWQFMDGDRIVTVQPQGKFKADSATALAAAAAAGLGIAWLPDCITHAYLASGALVPIMTRYPVPPGAVYVVRPPSQHPARKVRVLTEMLTEYFKRTPELWGVDG”: “not soluble”.
On to “MKDNLKEARRYLNNAKEMLSQKAKKEGKFYQDKKYIRLAGHAAYSGVLIALDNVLGNKDSGRKSVDWYKSELAKLDKKALTAFNGAYETLHLAMSYDGNIVANVSKSGIELADSIITWAETRTAAA”, for which the “soluble on expression in E. coli” value is on record as “not soluble”.
Next, “MVIRSVSRFLQGNNWPDVSKIYKTIVEKWRNENPDQNAHFSLEVTGPTGTSGVVTVKPSEEIGKSEKVSEEKSSEKPSIEVATTSLKRYPPAHMRVRDKLVGILSASGLRIGLPSSVSLVFSRSDLGSATSSTERICASSQEVASTMSLPDPSQSGITDSFPRVFKEFDFLEAEHDSVSETADSCFGWLSTMRPTREKDDERASIRSSLRNLSSGGQGGEEEEEEPEEDEESESHEEEENSESDDLPRKVEDDDLEEEDEDEEERTPCPSECCDDDREDVEMMLRQDIEAYASRGGSVAASSMADDDLRSRLTNNIVSISSQMTEHRHLEEENTSVDGSSVCAYSNASMLASEYYPNRTRSLRIQCSHHLDSRIEREFSMSVNEINESNDCNLLAYGTLLSTQLYKSSCGKVCALLRDASHILTNRAMSRSFASAQETLCNVVDIPFLFVTEQFLRNSPICQRLKFTLNELKEHWETFDERRDQCQKNTTNFGRKYKLFEILDFRKKNLKGINSLRSAYKLSALGGSTSSFSLTSELDLGKLLNKLVFQVKLMIDALKDMSDAVKNSTSSQTYSLSPAILEHHRELLMCASDDAASSVNSSLSRLNIDDSISRSQHSCDSLVLLLANKRYTQALQAVRQLRRTYGEEYGCCETVDVDVLLLLFCRSHSLKAWALVGASSEELTRQSELLREANAELASCLRRNAQSLQNMERMTPSMGSASMTESFAQLPSSSDHYD”: “not soluble”.
The entry for “MAAIAFIGLGQMGSPMASNLLQQGHQLRVFDVNAEAVRHLVDKGATPAANPAQAAKDAEFIITMLPNGDLVRNVLFGENGVCEGLSTDALVIDMSTIHPLQTDKLIADMQAKGFSMMDVPVGRTSANAITGTLLLLAGGTAEQVERATPILMAMGSELINAGGPGMGIRVKLINNYMSIALNALSAEAAVLCEALNLPFDVAVKVMSGTAAGKGHFTTSWPNKVLSGDLSPAFMIDLAHKDLGIALDVANQLHVPMPLGAASREVYSQARAAGRGRQDWSAILEQVRVSAGMTAKVKM” is “soluble”; for “MVDPNEHKKAVKTQQQDDEQTFEAVARAWHTDNKKWSESHAERILKSLSDNIFPAIGGTHVANLKTRDLLTPIKSVERSGRLEVAKRLKQRVTAIMTYAVQNGLIDYNPAQDMAGAIMPGKVEHRLEHHHHHH” it is “not soluble”; for “MAHHHHHHMLRRTVARFMASEAIGPAHPDILWGFMDGRYAGPGWVSWIKQLPVETLTMQGGTSMTNMNDRAGVILDPEDPRHSMALIQWGPMNHYDGAFMQLSYGDYGEIKKGSRLMQVLYDHYLEPFSMNRVCAQLYFYQKVPNNYHASVEASAEYIGQTASLVGQVVVGMGSVIMEGVTVKGDTNCVYIAEGVQVMENTCIVSDAPTDLLAYQRHEAINPYQQWDGMDGVCRIMQNTMIEPNCFLDSCSIGPFNRIGHNTKILKGVTTGTMVHILPGSVVTADTRIGDGELWGGAPAVKLGKVSKFEWKRPYYASLLHKECVVESYRNMSRYGDQVVYFQDEMGKLDTLMLQFESDITPSVKAKMKEFVQGREPFHHMLTRITQGWSPANRPDDKNYNLCPPLPAVKLFAEHNNDSSDSSLHGTYMNITNIFNDFRW” it is “not soluble”.
For “MDSVELCLPESFSLHYEEELLCRMSNKDRHIDSSCSSFIKTEPSSPASLTDSVNHHSPGGSSDASGSYSSTMNGHQNGLDSPPLYPSAPILGGSGPVRKLYDDCSSTIVEDPQTKCEYMLNSMPKRLCLVCGDIASGYHYGVASCEACKAFFKRTIQGNIEYSCPATNECEITKRRRKSCQACRFMKCLKVGMLKEGVRLDRVRGGRQKYKRRIDAENSPYLNPQLVQPAKKPYNKIVSHLLVAEPEKIYAMPDPTVPDSDIKALTTLCDLADRELVVIIGWAKHIPGFSTLSLADQMSLLQSAWMEILILGVVYRSLSFEDELVYADDYIMDEDQSKLAGLLDLNNAILQLVKKYKSMKLEKEEFVTLKAIALANSDSMHIEDVEAVQKLQDVLHEALQDYEAGQHMEDPRRAGKMLMTLPLLRQTSTKAVQHFYNIKLEGKVPMHKLFLEMLEAKV”, the “soluble on expression in E. coli” value is listed as “soluble”.
“MKNTSRDTVVMSWWDFGHLFAVAADRPVTFDGGSQNTPRAYWIGKALTTSNETLSRGILTMLSTSGDLAYETLDNYTDDSGKTAEILTATLGLPREEARAVMTGRYGLSDKEADSVLRYSHPAKPKPFVLVLSSDMLGKAPWWTYFGTWDFKKKTGSRYGYYPSLEHHHHHH”: the “soluble on expression in E. coli” value was “soluble”.
The entry for “MGSDKIHHHHHHMKIDFHTHIYPDHVAVRTIAAVRQRAGIEAHTDGTLKGLKRSMTAAGIDISVVAAVATRPEQVSSIHCWLGGIRQPGIETMATTHPSNPLKSEQIKSLKRRGFKGFKLHPDYQHFFVDDFRMYPFYEAAAAEGMFILFHAGMDRGLPYPVHATPKRLAAVHEAVPRLCMIAAHLGGEEAYEETVAHLLGKDLYLDTSFVLRKMPRLFLERIFREHPPDKLLFASDSPWTDQREELNFLLQLPFLSVQDQEKICFSNAARLLGREA” is “not soluble”.
Take “MSLQTCVLHRLSLPLKFPMRTAHGHIREKQAILVQLVDADGIEGWSECVALAEPTYTEECTDTAWVMLVHHLVPRFARWLRAASQDQDVDPRTVCEALRDVRGNRMSVAAIEMAVWDWYAARTGQPLVGLLGGGRDRVEVSATLGMSESLDVLIQSVDAAVEQGFRRVKLKIAPGRDRAAIKAVRLRYPDLAIAADANGSYRPEDAPVLRQLDAYDLQFIEQPLPEDDWFDLAKLQASLRTPVCLDESVRSVRELKLTARLGAARVLNVKPGRLGGFGATLRALDVAGEAGMAAWVGGMYETGVGRVHGLIAAALPLMRYATDLGPSDRYFEQDVLKEPIAFVEPGVIQVPQCAGVADWVDRDAVRRFSTATWSVDLRTLEGHHHHHH”: the “soluble on expression in E. coli” value is given as “soluble”.
For the sequence “MGSDKIHHHHHHMQWLTFQWLEFIREYREKAKHNLSNSGMPEPDLKSLGIDTSYEHYLDAAGEVEYRFTEALSRRLRVDQDLIIPTVGGTEAIFIALSHLSSVSKRIHVPLPEYEPMFLVPESLGIETSKIESKVMPGRISKNESIAMTLPNNPTAQYSDRISLLDNVIHSEGLIYIDETFRDFLPSGTRPTLFDGSETMVVSGTMTKFYGLSNLRTGWIISSEHNVAGMRRIKDLTSINNASFSLYIAAQAIQKWNYFKEAEDNLINKNLRVAREYLEGLPGISYKEPEGAPFIFLSYSKNIESVKLAKLAVERYGILFAPGSFFGEEHHIRVCLTSNKPEEDFNVLKEFLKKEAV”, the “soluble on expression in E. coli” value was “not soluble”.
“SLIYFFMVDAVELSRKYEGKIEIYPKVPITSYNDFALIYTPGVAEVSKAIYKDPDKSFELTSRWNTIAVVTDGTRVLGLGNIGPTAAMPVMEGKSLLFKYLGGVDAIPLPINVKSADEFTNVVKALETSFGGINLEDIESPKCFYILEKLQSMLNIPVWHDDQQGTAAAILAGLINAMILTNKDPKESKVVFYGAGASNIAAARILAKYGFKYENIVMIDSKGPLYADREDVDHLMLHHKWKYELAIKTNKWEAKEIKDAFSGADAVVAASTPGPNVIKKEWISLMNKEAIVFALANPVPEIWPQDAKEAGAKIVATGRSDFPNQVNNSLIFPAIFRGVLDSRAKAITDEMTIAASEALAKYARDRGINENYIIPRMDEWEAFYEEAAAVASKAVELGLARVKKSREEFREIAKERIIRARKIMNLVISTWSPEG”: the “soluble on expression in E. coli” value was “soluble”.
For the sequence “MLDYVPWIGNGYRYGNNHRGSNSSTSGVTTQGQSQNASSNEPAPTFSNVGVGLKANVNGTLSGSRTTPNQQGTPWLTLDQANLQLWTGAGWRNDKNGQSDENYTNFASAKGSTNQQGSTTGGSAGNPDSLKQDKADKSGDSVTVAEATSGDNLTNYTNLPPTSPPHPTDRTRCHSPTRTTPSGCSCSCAACWAASRCWSIRVGKMITVSLIPPTKNGLTPNLEHHHHHH”, the “soluble on expression in E. coli” value is on record as “not soluble”.
Next, “MPDYDLITILGPTASGKTPFAAALAHELNTEIISADSRQIYRGMDLGTGKDLADYTVDGHPIPYHLIDIADPGYKYNVFEYQRDFLISYESIKQKGCLPVLCGGTGMYLESVLKGYKLMPVPENPELRARLANHSLEELTEILKQYKTLHNSTDVDTVKRAIRAIEIEEYYAVHPVPEREFPKLNSLIIGVDIDRELRREKITRRLKQRLDEGMVDEVRRLTEQGISPDDLIYYGLEYKFLTLYVIGKLTYEEMFTELETAIHQFAKRQMTWFRGMERRGFTIHWVSAELPMEEKIAFVIEKLRGNLEHHHHHH”: “soluble”.
